# Source: patent EP1073891B1, “METHOD OF PREDICTING RECEPTOR MODULATING ACTIVITY” (Duke University, priority 1998, dated 1999)
# Like-named read-outs stand apart in the source and are kept apart here.
# Experiments:
# ERβ [1] = target: T1, ERβ (Homo sapiens, UniProt Q92731); experiment: Time resolved fluorescence (TRF) binding of europium-streptavidin peptide conjugates in the presence of modulators; parameters: purchased PanVera Corporation, Madison, WI; conditions: for EC50 / Equiv.: ERβ; for Equiv.: positive: % of maximum stimulation by the reference modulator, negative: % of reduction by ICI 182,780
# ERβ [2] = target: T1, ERβ; experiment: Phage ELISA / fingerprint on ER immobilized on biotinylated ERE (Examples 2.3-2.5); conditions: probe α/β I (LXXLL motif)
# ERα = target: T2, ERα (Homo sapiens, UniProt P03372); experiment: as above; type: binding; parameters: purchased PanVera Corporation, Madison, WI; key to binding activity, ERα and buffer / binding activity, ERα and estradiol / binding activity, ERα and tamoxifen / binding of peptide, Class Specific Fingerprint on ERα: semiquantitative scale of 0 to 7+; 1+: semiquantitative scale of 0 to 7+; 2+: semiquantitative scale of 0 to 7+; 3+: semiquantitative scale of 0 to 7+; 4+: semiquantitative scale of 0 to 7+; 5+: semiquantitative scale of 0 to 7+; 6+: semiquantitative scale of 0 to 7+; semiquantitative scale of 0 to 7+; conditions: for binding activity, ERα and estradiol: ERα and estradiol (1 µM); for binding activity, ERα and tamoxifen: ERα and tamoxifen (4-OH tamoxifen, 1 µM)
# T2 sequence (P03372 1-595): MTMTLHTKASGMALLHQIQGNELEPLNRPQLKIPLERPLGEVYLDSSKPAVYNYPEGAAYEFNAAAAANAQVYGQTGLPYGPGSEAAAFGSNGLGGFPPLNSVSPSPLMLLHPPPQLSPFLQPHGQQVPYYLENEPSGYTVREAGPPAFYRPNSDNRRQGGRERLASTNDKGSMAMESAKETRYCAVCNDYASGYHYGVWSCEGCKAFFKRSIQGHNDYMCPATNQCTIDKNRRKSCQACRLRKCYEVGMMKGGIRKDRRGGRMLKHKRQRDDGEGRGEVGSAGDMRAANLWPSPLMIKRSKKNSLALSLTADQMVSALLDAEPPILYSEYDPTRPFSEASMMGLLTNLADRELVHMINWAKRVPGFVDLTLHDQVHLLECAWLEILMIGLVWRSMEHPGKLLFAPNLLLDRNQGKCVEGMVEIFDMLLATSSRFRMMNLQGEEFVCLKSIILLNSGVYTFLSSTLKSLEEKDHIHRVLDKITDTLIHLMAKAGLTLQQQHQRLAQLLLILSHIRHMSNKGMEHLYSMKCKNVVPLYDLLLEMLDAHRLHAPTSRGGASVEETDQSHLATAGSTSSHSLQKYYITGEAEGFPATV
# ERβ [3] = target: T1, ERβ; experiment: as above; type: binding; parameters: purchased PanVera Corporation, Madison, WI; key: semiquantitative scale of 0 to 7+; 1+: semiquantitative scale of 0 to 7+; 2+: semiquantitative scale of 0 to 7+; 3+: semiquantitative scale of 0 to 7+; 4+: semiquantitative scale of 0 to 7+; 5+: semiquantitative scale of 0 to 7+; 6+: semiquantitative scale of 0 to 7+; semiquantitative scale of 0 to 7+; conditions: for binding activity, ERβ and Estradiol: ERβ and Estradiol (1 µM); for binding activity, ERβ and tamoxifen: ERβ and tamoxifen (4-OH tamoxifen, 1 µM)
# [4] = TRF binding assay, in the presence of the compound
# [5] = 4-OH Tamoxifen present during binding
# [6] = 16a-OH Estrone present during binding
# [7] = Clomiphene present during binding
# [8] = Estradiol present during binding
# [9] = ICI 182,780 present during binding
# [10] = Nafoxidine present during binding
# [11] = Premarin present during binding
# [12] = Progesterone present during binding
# [13] = Raloxifene present during binding
# T1 sequence (Q92731 whole entry): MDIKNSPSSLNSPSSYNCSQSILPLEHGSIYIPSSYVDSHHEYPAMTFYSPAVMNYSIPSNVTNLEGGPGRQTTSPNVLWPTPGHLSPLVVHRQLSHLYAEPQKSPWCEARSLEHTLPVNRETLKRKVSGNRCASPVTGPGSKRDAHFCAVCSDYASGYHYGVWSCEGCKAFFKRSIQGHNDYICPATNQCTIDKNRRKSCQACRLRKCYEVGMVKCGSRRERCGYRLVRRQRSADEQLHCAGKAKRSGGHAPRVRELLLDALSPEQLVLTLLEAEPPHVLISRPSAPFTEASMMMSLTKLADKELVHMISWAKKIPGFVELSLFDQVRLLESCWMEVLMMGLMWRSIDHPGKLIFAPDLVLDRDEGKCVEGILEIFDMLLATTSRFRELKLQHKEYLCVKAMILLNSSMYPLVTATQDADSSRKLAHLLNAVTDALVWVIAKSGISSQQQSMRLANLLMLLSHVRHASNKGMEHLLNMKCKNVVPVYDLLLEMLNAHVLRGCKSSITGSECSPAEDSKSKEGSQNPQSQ
molecule,measurement,setting,value
"CC/C(=C(\c1ccc(O)cc1)c1ccc(OCCN(C)C)cc1)c1ccccc1 [4-OH Tamoxifen, 4-OH tamoxifen]",binding of the β I probe to ER β,ERβ [1],enhanced
same,binding of the probe α/β I to ER β in the presence of the ligand,ERβ [2],prevented the binding
"CCN(CC)CCOc1ccc(C(=C(Cl)c2ccccc2)c2ccccc2)cc1 [Clomiphene, clomiphene]",binding of the β I probe to ER β,ERβ [1]; [4],reduced
same,EC50,ERβ [1]; peptide probe α/βIII,82.2 nM
same,Equiv.,ERβ [1]; peptide probe α/βIII,34%
same,Equiv.,ERβ [1]; peptide probe α/βIV,0%
same,EC50,ERβ [1]; peptide probe α/βV,150 nM
same,Equiv.,ERβ [1]; peptide probe α/βV,13%
same,EC50,ERβ [1]; peptide probe βI,135 nM
same,Equiv.,ERβ [1]; peptide probe βI,-62%
same,EC50,ERβ [1]; peptide probe βIII,123 nM
same,Equiv.,ERβ [1]; peptide probe βIII,-61%
same,binding of the probe α/β I to ER β in the presence of the ligand,ERβ [2],prevented the binding
"CC/C(=C(/CC)c1ccc(O)cc1)c1ccc(O)cc1 [DES, diethylstilbestrol]",binding of the β I probe to ER β,ERβ [1]; [4],reduction
CC/C(=C(\c1ccc(O)cc1)c1ccc(/C=C/C(=O)O)cc1)c1ccccc1 [GW 7604],Equiv.,ERβ [1]; peptide probe α/βI,0%
same,Equiv.,ERβ [1]; peptide probe α/βV,0%
"C[C@]12CC[C@@H]3c4ccc(O)cc4C[C@@H](CCCCCCCCC[S+]([O-])CCCC(F)(F)C(F)(F)F)[C@H]3[C@@H]1CC[C@@H]2O (stereo partly drawn) [ICI 182,780]",binding of the probe α/β I to ER β in the presence of the ligand,ERβ [2],prevented the binding
O=C(c1ccc(OCCN2CCCCC2)cc1)c1c(-c2ccc(O)cc2)sc2cc(O)ccc12 [raloxifene],binding of the β I probe to ER β,ERβ [1],reduced
same,binding of the probe α/β I to ER β in the presence of the ligand,ERβ [2],prevented the binding
SSTTMFDFFYERLSR [Peptide 6t-β],"binding activity, ERα and buffer",ERα,4+
same,"binding activity, ERα and estradiol",ERα,4+
same,"binding activity, ERα and tamoxifen",ERα,6+
same,"binding activity, ERβ and Estradiol",ERβ [3],4+
same,"binding activity, ERβ and buffer",ERβ [3],7+
same,"binding activity, ERβ and tamoxifen",ERβ [3],7+
SSTTWRCPEWYCGSR [Peptide 30E-β],"binding activity, ERα and buffer",ERα,4+
same,"binding activity, ERα and estradiol",ERα,3+
same,"binding activity, ERα and tamoxifen",ERα,3+
same,"binding activity, ERβ and Estradiol",ERβ [3],7+
same,"binding activity, ERβ and buffer",ERβ [3],6+
same,"binding activity, ERβ and tamoxifen",ERβ [3],3+
SSVASREWWVRELSR [Peptide 15t-β],"binding activity, ERα and buffer",ERα,3+
same,"binding activity, ERα and estradiol",ERα,2+
same,"binding activity, ERα and tamoxifen",ERα,5+
same,"binding activity, ERβ and Estradiol",ERβ [3],2+
same,"binding activity, ERβ and buffer",ERβ [3],6+
same,"binding activity, ERβ and tamoxifen",ERβ [3],7+
SSVFTIMDGKVALSR [Peptide 1t-β],"binding activity, ERα and buffer",ERα,3+
same,"binding activity, ERα and estradiol",ERα,3+
same,"binding activity, ERα and tamoxifen",ERα,7+
same,"binding activity, ERβ and Estradiol",ERβ [3],2+
same,"binding activity, ERβ and buffer",ERβ [3],3+
same,"binding activity, ERβ and tamoxifen",ERβ [3],7+
SSWDFRVPWWYNNSR [Peptide 31E-β],"binding activity, ERα and buffer",ERα,3+
same,"binding activity, ERα and estradiol",ERα,2+
same,"binding activity, ERα and tamoxifen",ERα,3+
same,"binding activity, ERβ and Estradiol",ERβ [3],7+
same,"binding activity, ERβ and buffer",ERβ [3],3+
same,"binding activity, ERβ and tamoxifen",ERβ [3],2+
SSWNSREFFLSQLSR [Peptide 5t-β],"binding activity, ERα and buffer",ERα,3+
same,"binding activity, ERα and estradiol",ERα,2+
same,"binding activity, ERα and tamoxifen",ERα,5+
same,"binding activity, ERβ and Estradiol",ERβ [3],2+
same,"binding activity, ERβ and buffer",ERβ [3],2+
same,"binding activity, ERβ and tamoxifen",ERβ [3],7+
SSWPGAEWFKEQLSR [Peptide 20b-β],"binding activity, ERα and buffer",ERα,4+
same,"binding activity, ERα and estradiol",ERα,3+
same,"binding activity, ERα and tamoxifen",ERα,4+
same,"binding activity, ERβ and Estradiol",ERβ [3],4+
same,"binding activity, ERβ and buffer",ERβ [3],7+
same,"binding activity, ERβ and tamoxifen",ERβ [3],5+
SSWPNPTFWERQLSR [Peptide 3b-β],"binding activity, ERα and buffer",ERα,5+
same,"binding activity, ERα and estradiol",ERα,3+
same,"binding activity, ERα and tamoxifen",ERα,3+
same,"binding activity, ERβ and Estradiol",ERβ [3],2+
same,"binding activity, ERβ and buffer",ERβ [3],5+
SSYDWQCPSWYCPAPPSSR [Peptide 29E-β],"binding activity, ERα and buffer",ERα,3+
same,"binding activity, ERα and estradiol",ERα,4+
same,"binding activity, ERα and tamoxifen",ERα,3+
same,"binding activity, ERβ and Estradiol",ERβ [3],7+
same,"binding activity, ERβ and buffer",ERβ [3],7+
same,"binding activity, ERβ and tamoxifen",ERβ [3],5+
SSYEIPKWALQWLSR [Peptide 34E-β],"binding activity, ERα and buffer",ERα,5+
same,"binding activity, ERα and estradiol",ERα,3+
same,"binding activity, ERα and tamoxifen",ERα,4+
same,"binding activity, ERβ and Estradiol",ERβ [3],6+
same,"binding activity, ERβ and buffer",ERβ [3],4+
same,"binding activity, ERβ and tamoxifen",ERβ [3],2+
SWDMHQFFWEGVSR [Peptide 2PT],"binding of peptide, Class Specific Fingerprint on ERα",ERα; [5],7+
same,"binding of peptide, Class Specific Fingerprint on ERα",ERα; [6],2+
same,"binding of peptide, Class Specific Fingerprint on ERα",ERα; [7],6+
same,"binding of peptide, Class Specific Fingerprint on ERα",ERα; DES present during binding,1+
same,"binding of peptide, Class Specific Fingerprint on ERα",ERα; [8],1+
same,"binding of peptide, Class Specific Fingerprint on ERα",ERα; Estriol present during binding,1+
same,"binding of peptide, Class Specific Fingerprint on ERα",ERα; [9],1+
same,"binding of peptide, Class Specific Fingerprint on ERα",ERα; [10],4+
same,"binding of peptide, Class Specific Fingerprint on ERα",ERα; [11],2+
same,"binding of peptide, Class Specific Fingerprint on ERα",ERα; [12],2+
same,"binding of peptide, Class Specific Fingerprint on ERα",ERα; [13],4+
same,"binding of peptide, Class Specific Fingerprint on ERα",ERα; buffer present during binding,1+
same,"binding of peptide, Class Specific Fingerprint on ERβ",ERβ [3]; [5],7+
same,"binding of peptide, Class Specific Fingerprint on ERβ",ERβ [3]; [6],1+
same,"binding of peptide, Class Specific Fingerprint on ERβ",ERβ [3]; [7],5+
same,"binding of peptide, Class Specific Fingerprint on ERβ",ERβ [3]; DES present during binding,1+
same,"binding of peptide, Class Specific Fingerprint on ERβ",ERβ [3]; [8],1+
same,"binding of peptide, Class Specific Fingerprint on ERβ",ERβ [3]; Estriol present during binding,1+
same,"binding of peptide, Class Specific Fingerprint on ERβ",ERβ [3]; [9],1+
same,"binding of peptide, Class Specific Fingerprint on ERβ",ERβ [3]; [10],3+
same,"binding of peptide, Class Specific Fingerprint on ERβ",ERβ [3]; [11],1+
same,"binding of peptide, Class Specific Fingerprint on ERβ",ERβ [3]; [12],1+
same,"binding of peptide, Class Specific Fingerprint on ERβ",ERβ [3]; [13],6+
same,"binding of peptide, Class Specific Fingerprint on ERβ",ERβ [3]; buffer present during binding,2+
SYSKEWFEERLNSR [Peptide 4b-β],"binding activity, ERα and buffer",ERα,4+
same,"binding activity, ERα and estradiol",ERα,3+
same,"binding activity, ERα and tamoxifen",ERα,3+
same,"binding activity, ERβ and Estradiol",ERβ [3],3+
same,"binding activity, ERβ and buffer",ERβ [3],7+
same,"binding activity, ERβ and tamoxifen",ERβ [3],3+
